The record followed here is patent US6423518B1, “Design and production of mutant 2,5-diketo-D-gluconic acid reductase enzymes with altered cofactor dependency” (Rutgers, the State University, priority 2000, dated 2002).

First the molecules themselves.
B1: 2,5-diketo-D-gluconic acid reductase A (Corynebacterium sp., wild type SEQ ID NO:1) variant K232M (Corynebacterium sp. ATCC 31090; K232M) (protein)
chain: MTVPSIVLNDGNSIPQLGYGVFKVPPADTQRAVEEALEVGYRHIDTAAIYGNEEGVGAAIAASGIARDDLFITTKLWNDRHDGDEPAAAIAESLAKLALDQVDLYLVHWPTPAADNYVHAWEKMIELRAAGLTRSIGVSNHLVPHLERIVAATGVVPAVNQIELHPAYQQREITDWAAAHDVKIESWGPLGQGKYDLFGAEPVTAAAAAHGKTPAQAVLRWHLQKGFVVFPMSVRRERLEENLDVFDFDLTDTEIAAIDAMDPGDGSGRVSAHPDEVD
notes: GroES fragment (N); made in house; host or cells: E. coli JM109
B2: 2,5-diketo-D-gluconic acid reductase A (Corynebacterium sp., wild type SEQ ID NO:1) variant K232Q (Corynebacterium sp. ATCC 31090; K232Q) (protein)
chain: MTVPSIVLNDGNSIPQLGYGVFKVPPADTQRAVEEALEVGYRHIDTAAIYGNEEGVGAAIAASGIARDDLFITTKLWNDRHDGDEPAAAIAESLAKLALDQVDLYLVHWPTPAADNYVHAWEKMIELRAAGLTRSIGVSNHLVPHLERIVAATGVVPAVNQIELHPAYQQREITDWAAAHDVKIESWGPLGQGKYDLFGAEPVTAAAAAHGKTPAQAVLRWHLQKGFVVFPQSVRRERLEENLDVFDFDLTDTEIAAIDAMDPGDGSGRVSAHPDEVD
notes: as for B1
B3: 2,5-diketo-D-gluconic acid reductase A (Corynebacterium sp., wild type SEQ ID NO:1) variant K232S (Corynebacterium sp. ATCC 31090; K232S) (protein)
chain: MTVPSIVLNDGNSIPQLGYGVFKVPPADTQRAVEEALEVGYRHIDTAAIYGNEEGVGAAIAASGIARDDLFITTKLWNDRHDGDEPAAAIAESLAKLALDQVDLYLVHWPTPAADNYVHAWEKMIELRAAGLTRSIGVSNHLVPHLERIVAATGVVPAVNQIELHPAYQQREITDWAAAHDVKIESWGPLGQGKYDLFGAEPVTAAAAAHGKTPAQAVLRWHLQKGFVVFPSSVRRERLEENLDVFDFDLTDTEIAAIDAMDPGDGSGRVSAHPDEVD
notes: as for B1
B4: 2,5-diketo-D-gluconic acid reductase A (Corynebacterium sp., wild type SEQ ID NO:1) variant R238E (Corynebacterium sp. ATCC 31090; R238E) (protein)
chain: MTVPSIVLNDGNSIPQLGYGVFKVPPADTQRAVEEALEVGYRHIDTAAIYGNEEGVGAAIAASGIARDDLFITTKLWNDRHDGDEPAAAIAESLAKLALDQVDLYLVHWPTPAADNYVHAWEKMIELRAAGLTRSIGVSNHLVPHLERIVAATGVVPAVNQIELHPAYQQREITDWAAAHDVKIESWGPLGQGKYDLFGAEPVTAAAAAHGKTPAQAVLRWHLQKGFVVFPKSVRREELEENLDVFDFDLTDTEIAAIDAMDPGDGSGRVSAHPDEVD
notes: as for B1
B5: 2,5-diketo-D-gluconic acid reductase A (Corynebacterium sp., wild type SEQ ID NO:1) variant R235G (Corynebacterium sp. ATCC 31090; R235G) (protein)
chain: MTVPSIVLNDGNSIPQLGYGVFKVPPADTQRAVEEALEVGYRHIDTAAIYGNEEGVGAAIAASGIARDDLFITTKLWNDRHDGDEPAAAIAESLAKLALDQVDLYLVHWPTPAADNYVHAWEKMIELRAAGLTRSIGVSNHLVPHLERIVAATGVVPAVNQIELHPAYQQREITDWAAAHDVKIESWGPLGQGKYDLFGAEPVTAAAAAHGKTPAQAVLRWHLQKGFVVFPKSVGRERLEENLDVFDFDLTDTEIAAIDAMDPGDGSGRVSAHPDEVD
notes: as for B1
B6: 2,5-diketo-D-gluconic acid reductase A, wild type, Corynebacterium sp. (ATCC Strain No. 31090; Genbank Accession No. 4699594; SEQ ID NO:1) (Corynebacterium sp. … (protein)
chain: MTVPSIVLNDGNSIPQLGYGVFKVPPADTQRAVEEALEVGYRHIDTAAIYGNEEGVGAAIAASGIARDDLFITTKLWNDRHDGDEPAAAIAESLAKLALDQVDLYLVHWPTPAADNYVHAWEKMIELRAAGLTRSIGVSNHLVPHLERIVAATGVVPAVNQIELHPAYQQREITDWAAAHDVKIESWGPLGQGKYDLFGAEPVTAAAAAHGKTPAQAVLRWHLQKGFVVFPKSVRRERLEENLDVFDFDLTDTEIAAIDAMDPGDGSGRVSAHPDEVD
notes: as for B1
B7: 2,5-diketo-D-gluconic acid reductase A (Corynebacterium sp., wild type SEQ ID NO:1) variant K232G (Corynebacterium sp. ATCC 31090; K232G) (protein)
chain: MTVPSIVLNDGNSIPQLGYGVFKVPPADTQRAVEEALEVGYRHIDTAAIYGNEEGVGAAIAASGIARDDLFITTKLWNDRHDGDEPAAAIAESLAKLALDQVDLYLVHWPTPAADNYVHAWEKMIELRAAGLTRSIGVSNHLVPHLERIVAATGVVPAVNQIELHPAYQQREITDWAAAHDVKIESWGPLGQGKYDLFGAEPVTAAAAAHGKTPAQAVLRWHLQKGFVVFPGSVRRERLEENLDVFDFDLTDTEIAAIDAMDPGDGSGRVSAHPDEVD
notes: as for B1
B8: 2,5-diketo-D-gluconic acid reductase A (Corynebacterium sp., wild type SEQ ID NO:1) variant R238H (Corynebacterium sp. ATCC 31090; R238H) (protein)
chain: MTVPSIVLNDGNSIPQLGYGVFKVPPADTQRAVEEALEVGYRHIDTAAIYGNEEGVGAAIAASGIARDDLFITTKLWNDRHDGDEPAAAIAESLAKLALDQVDLYLVHWPTPAADNYVHAWEKMIELRAAGLTRSIGVSNHLVPHLERIVAATGVVPAVNQIELHPAYQQREITDWAAAHDVKIESWGPLGQGKYDLFGAEPVTAAAAAHGKTPAQAVLRWHLQKGFVVFPKSVRREHLEENLDVFDFDLTDTEIAAIDAMDPGDGSGRVSAHPDEVD
notes: as for B1
B9: 2,5-diketo-D-gluconic acid reductase A (Corynebacterium sp., wild type SEQ ID NO:1) variant R235T (Corynebacterium sp. ATCC 31090; R235T) (protein)
chain: MTVPSIVLNDGNSIPQLGYGVFKVPPADTQRAVEEALEVGYRHIDTAAIYGNEEGVGAAIAASGIARDDLFITTKLWNDRHDGDEPAAAIAESLAKLALDQVDLYLVHWPTPAADNYVHAWEKMIELRAAGLTRSIGVSNHLVPHLERIVAATGVVPAVNQIELHPAYQQREITDWAAAHDVKIESWGPLGQGKYDLFGAEPVTAAAAAHGKTPAQAVLRWHLQKGFVVFPKSVTRERLEENLDVFDFDLTDTEIAAIDAMDPGDGSGRVSAHPDEVD
notes: as for B1

Substrate in one data set: O=C(O)C(=O)[C@@H](O)[C@H](O)C(=O)CO
Put plainly: purified protein, by the assay type. In kind it is biochemical, Corynebacterium sp. The following applies: other: Kb = Michaelis constant for 2,5-diketo-D-gluconic acid, cofactor NADH, pH 7.0, 25° C.
Procedure: Cells containing plasmids for some of the mutant reductases were grown up on a 1 liter scale using a 10 ml inoculum from a saturated overnight culture. The cells were grown until absorbance of the culture at 600 nm was approximately 1.0. The cells were then induced by adding IPTG to a final concentration of 1 mM. The cells were harvested after growth at 37° C. for 4 hours. The cells were then pelleted by centrifugation and frozen for later use. At a later date, cells were thawed and lysed with the Bug Buster detergent (Novagen) containing Complete Protease Inhibitor Cocktail Tablets (Roche). […]
These reactions were performed in 96-well microtiter plates using a SpectraMax 190 plate reader (Molecular Devices). […] Initial rate data was collected in each well, and a standard curve was generated each day in order to correlate the change in absorbance of the reaction to a change in concentration of cofactors. […]
B1: the kcat/Km is on record as 0.593 ± 0.023 min^−1/mm^−1.

Regarding B2, the kcat/Km was 0.634 ± 0.037 min^−1/mm^−1.

Substrate in the next data set: O=C(O)C(=O)[C@@H](O)[C@H](O)C(=O)CO
Put plainly: purified protein, by the assay type. In kind it is biochemical, Corynebacterium sp. The following applies: other: Kb = Michaelis constant for 2,5-diketo-D-gluconic acid, cofactor NADH, pH 7.0, 25° C. This is another data set of the same source. Here is the method: The activities of the purified enzymes were assayed in 96-well microtiter plates on a plate reader.
Equation (1) is: [formula]
B=2,5-diketo-D-gluconic acid concentration;
Kb=Michaelis Constant for 2,5-diketo-D-gluconic acid;
Kia=Dissociation Constant for NADH;
Et=Total enzyme concentration.
However, the parameters could not be fit in this model with any accuracy, due to the large apparent value of KM for 2,5-diketo-D-gluconic acid, and the low concentration of 2,5-diketo-D-gluconic acid that was used. The 2,5-diketo-D-gluconic acid concentrations were not large enough to saturate the enzyme, so a further mathematical simplification was required. Preliminary fitting of the model indicated both kcat and Kb to be very large in comparison to Ka and Kia Therefore, the rate equation was simplified to the following equation (2): [formula]
This equation is only valid when B<<Kb.
This equation was then used to fit the kinetic data, with much better results.
Other comparisons can also be made between the different mutants using these parameters. […]
Cells containing plasmids for some of the mutant reductases were grown up on a 1 liter scale using a 10 ml inoculum from a saturated overnight culture. The cells were grown until absorbance of the culture at 600 nm was approximately 1.0. The cells were then induced by adding IPTG to a final concentration of 1 mM. The cells were harvested after growth at 37° C. for 4 hours. The cells were then pelleted by centrifugation and frozen for later use. At a later date, cells were thawed and lysed with the Bug Buster detergent (Novagen) containing Complete Protease Inhibitor Cocktail Tablets (Roche). The pH was lowered to 5.5 with 20 mM sodium acetate (NaOAc) and NaCl was added to a final concentration of 0.15 M. After 10 minutes with the detergent, the cell debris was removed by centrifugation, and the supernatant was loaded onto disposable chromatography columns containing a 10 ml bed volume of DEAE Cellulose (Sigma) for a batch weak ion exchange step. The resin was washed with 0.15 M NaCl, still in the presence of NaOAc, pH 5.5. The bound proteins were then eluted by two washes with 0.5 M NaCl. The eluted material was then diluted back to 0.15 M NaCl by the addition of more 20 mM NaOAc buffer. This was then loaded onto a 4.6 mmD/100mml PEEK column (PerSeptive Biosystems) containing 50 μm DEAE Ceramic HyperD F resin (BioSepra) using an FPLC system. The high performance resin was washed with 0.1 M NaCl and the bound proteins were eluted using a linear salt gradient up to 0.4 M NaCl. Active fractions were pooled and the pH was raised to 7.0 using 50 mM bis-Tris. The pooled fractions were then concentrated by ultrafiltration in a stirred cell unit using a polyethersulfone membrane with a 10,000 MW cut-off (Millipore). The concentrate was loaded onto a Superdex-75 gel filtration column (Pharmacia) using 50 mM bis-Tris pH 7.0 with an FPLC system. The active fractions were again pooled. A small sample from the pooled fractions was electrophoresed on a polyacrylamide gel in the presence of SDS in order to insure homogeneity of the final product.
NADPH and NADH were prepared fresh for each use in kinetic measurements. These reactions were performed in 96-well microtiter plates using a SpectraMax 190 plate reader (Molecular Devices). Varying amounts of cofactor and substrate were added to the wells and reaction was initiated by the addition of the mutant enzyme. The final volume of each reaction was 200 μl, the reactions were buffered with 50 mM bis-Tris pH 7.0, and the temperature was held at 25° C. […] Initial rate data was collected in each well, and a standard curve was generated each day in order to correlate the change in absorbance of the reaction to a change in concentration of cofactors. All measurements were performed in triplicate (at least) and the runs were averaged for use in kinetic modeling.
Turning to B3, the kcat/Km was determined as 0.318 ± 0.018 min^−1/mm^−1.

For the protein B4, the kcat/Km is recorded as 1.49 ± 0.24 min^−1/mm^−1.

Turning to B5, the kcat/Km is given as 3.58 ± 0.023 min^−1/mm^−1.

Consider B6, for which the kcat/Km is 0.724 ± 0.026 min^−1/mm^−1.

As for B7, the kcat/Km came out at 0.874 ± 0.028 min^−1/mm^−1.

Take B8: the kcat/Km worked out at 3.87 ± 0.13 min^−1/mm^−1.

B9: the kcat/Km was 1.34 ± 0.28 min^−1/mm^−1.
